Values belong to the binder of their own block, whether it stands above or below them. Starred links: 1 amine or outer side, 2 acyl side, 3 side chain; linkers in the order of their positions; H or OH if unused. Non-standard residues stand in square brackets, D forms with d. *: point of attachment. AC4Abu = α-carboxy-4-aminobutyric acid, O=C(C(CCN[*:1])C(=O)[*:3])[*:2]; dBip = N[C@H](Cc1ccc(-c2ccccc2)cc1)C(=O)O; Oic = O=C(O)[C@@H]1C[C@@H]2CCCC[C@@H]2N1; Phe(4-Cl) = N[C@@H](Cc1ccc(Cl)cc1)C(=O)O; Phe(4-I) = N[C@@H](Cc1ccc(I)cc1)C(=O)O; γGlu = O=C(O)[C@H](CCC(=O)[*:2])N[*:1]; NMeR = CN[C@@H](CCCNC(=N)N)C(=O)O; Tridecanoyl = CCCCCCCCCCCCC(=O)*; hArg = N=C(N)NCCCC[C@H](N)C(=O)O; β3hF = N[C@H](CC(=O)O)Cc1ccccc1; Cha = N[C@@H](CC1CCCCC1)C(=O)O; NMeL = CN[C@@H](CC(C)C)C(=O)O; αMeP = C[C@@]1(C(=O)O)CCCN1; β3hP = O=C(O)C[C@@H]1CCCN1; Nle = CCCC[C@H](N)C(=O)O; AEEA = NCCOCCOCC(=O)O
Tests used:
Test in all cases: cell-based or functional assay
[1] = target: T1, rat APJ receptor (rat, UniProt Q9JHG3 1-377)
T1 sequence (looked up): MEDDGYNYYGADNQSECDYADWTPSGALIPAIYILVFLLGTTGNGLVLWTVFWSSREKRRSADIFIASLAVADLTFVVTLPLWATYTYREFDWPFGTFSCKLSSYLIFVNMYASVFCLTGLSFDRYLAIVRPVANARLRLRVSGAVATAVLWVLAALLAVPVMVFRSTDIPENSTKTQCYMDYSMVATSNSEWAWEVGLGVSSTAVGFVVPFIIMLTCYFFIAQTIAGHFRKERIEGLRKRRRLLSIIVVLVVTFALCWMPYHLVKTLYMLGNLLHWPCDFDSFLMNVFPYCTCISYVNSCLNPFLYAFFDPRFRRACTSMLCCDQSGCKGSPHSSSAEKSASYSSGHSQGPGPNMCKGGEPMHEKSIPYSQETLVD

[2] = target: T2, human APJ receptor (human, UniProt P35414 1-380)
T2 sequence (looked up): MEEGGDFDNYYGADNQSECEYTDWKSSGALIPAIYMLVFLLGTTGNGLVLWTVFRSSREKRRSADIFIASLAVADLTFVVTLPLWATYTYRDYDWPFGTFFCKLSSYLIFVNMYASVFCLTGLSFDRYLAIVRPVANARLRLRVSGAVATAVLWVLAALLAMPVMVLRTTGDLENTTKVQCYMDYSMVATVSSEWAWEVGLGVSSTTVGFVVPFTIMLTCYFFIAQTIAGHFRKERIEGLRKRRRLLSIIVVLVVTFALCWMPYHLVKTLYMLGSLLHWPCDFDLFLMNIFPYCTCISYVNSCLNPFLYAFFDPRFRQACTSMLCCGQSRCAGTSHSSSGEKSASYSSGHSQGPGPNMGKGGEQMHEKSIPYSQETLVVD

[3] = target: T3, rat APJ receptor (rat, UniProt Q9JHG3 1-377); remark: listed apart in the source
T3 sequence (looked up): T1 sequence (looked up)

[4] = target: T4, human APJ receptor (human, UniProt P35414 1-380); remark: listed apart in the source
T4 sequence (looked up): T2 sequence (looked up)

EC50 Rat APJ Receptor (GTPγS assay) [1]: 8.38 nM
EC50 Human APJ Receptor (GTPγS assay) [2]: 7.52 nM
B1: Apelin polypeptide SEQ ID NO: 379 (peptide)
peptide: Tridecanoyl-[γGlu][AEEA][AEEA]QRP[NMeR][Cha]SHKG[Oic][Nle]P[β3hF]-OH
SMILES: CCCCCCCCCCCCC(=O)N[C@@H](CCC(=O)NCCOCCOCC(=O)NCCOCCOCC(=O)N[C@@H](CCC(N)=O)C(=O)N[C@@H](CCCNC(=N)N)C(=O)N1CCC[C@H]1C(=O)N(C)[C@@H](CCCNC(=N)N)C(=O)N[C@@H](CC1CCCCC1)C(=O)N[C@@H](CO)C(=O)N[C@@H](Cc1c[nH]cn1)C(=O)N[C@@H](CCCCN)C(=O)NCC(=O)N1[C@H](C(=O)N[C@@H](CCCC)C(=O)N2CCC[C@H]2C(=O)N[C@H](CC(=O)O)Cc2ccccc2)C[C@@H]2CCCC[C@@H]21)C(=O)O

EC50 Rat APJ Receptor (GTPγS assay) [1]: 1.15 nM
EC50 Human APJ Receptor (GTPγS assay) [2]: 0.235 nM
B2: Apelin polypeptide SEQ ID NO: 551 (peptide)
peptide: Tridecanoyl-[γGlu][AEEA][AEEA][dQ]RP[NMeR][Cha]SHKG[αMeP][Nle][Phe(4-Cl)]-OH
SMILES: CCCCCCCCCCCCC(=O)N[C@@H](CCC(=O)NCCOCCOCC(=O)NCCOCCOCC(=O)N[C@H](CCC(N)=O)C(=O)N[C@@H](CCCNC(=N)N)C(=O)N1CCC[C@H]1C(=O)N(C)[C@@H](CCCNC(=N)N)C(=O)N[C@@H](CC1CCCCC1)C(=O)N[C@@H](CO)C(=O)N[C@@H](Cc1c[nH]cn1)C(=O)N[C@@H](CCCCN)C(=O)NCC(=O)N1CCC[C@@]1(C)C(=O)N[C@@H](CCCC)C(=O)N[C@@H](Cc1ccc(Cl)cc1)C(=O)O)C(=O)O

EC50 Rat APJ Receptor [3]: 0.388 nM
EC50 Human APJ Receptor [4]: 0.22 nM
Binder: XXXQRPRLSHKGPXPF ({Acetyl-NH}[AC4Abu][Aeea][Aeea]QRP[NMeArg]LSHKGP[Nle]P[4-Cl-F]{COOH}) [SEQ ID NO: 88]

EC50 Human APJ Receptor [4]: 0.0376 nM
Binder: XXXQRPRLSHKGPXPF ({hexanoyl}[AC4Abu][Aeea][Aeea]QRP[NMeArg]LSHKGP[Nle]P[4-Cl-F]{COOH}) [SEQ ID NO: 492]

EC50 Rat APJ Receptor (GTPγS assay) [1]: 3.7 nM
EC50 Human APJ Receptor (GTPγS assay) [2]: 1.3 nM
B3: Apelin polypeptide SEQ ID NO: 545 (peptide)
peptide: Tridecanoyl-[γGlu][AEEA][AEEA][dQ]RP[NMeR][Cha]SHKG[αMeP][Nle][β3hP][Phe(4-Cl)]-OH
SMILES: CCCCCCCCCCCCC(=O)N[C@@H](CCC(=O)NCCOCCOCC(=O)NCCOCCOCC(=O)N[C@H](CCC(N)=O)C(=O)N[C@@H](CCCNC(=N)N)C(=O)N1CCC[C@H]1C(=O)N(C)[C@@H](CCCNC(=N)N)C(=O)N[C@@H](CC1CCCCC1)C(=O)N[C@@H](CO)C(=O)N[C@@H](Cc1c[nH]cn1)C(=O)N[C@@H](CCCCN)C(=O)NCC(=O)N1CCC[C@@]1(C)C(=O)N[C@@H](CCCC)C(=O)N1CCC[C@H]1CC(=O)N[C@@H](Cc1ccc(Cl)cc1)C(=O)O)C(=O)O

EC50 Rat APJ Receptor (GTPγS assay) [1]: 8.1 nM
EC50 Human APJ Receptor (GTPγS assay) [2]: 5.99 nM
B4: Apelin polypeptide SEQ ID NO: 417 (peptide)
peptide: Tridecanoyl-[AC4Abu][AEEA][AEEA]QRP[NMeR][Cha]SHKG[β3hP][Nle]P[Phe(4-Cl)]-OH
SMILES: CCCCCCCCCCCCC(=O)NCCC(C(=O)O)C(=O)NCCOCCOCC(=O)NCCOCCOCC(=O)N[C@@H](CCC(N)=O)C(=O)N[C@@H](CCCNC(=N)N)C(=O)N1CCC[C@H]1C(=O)N(C)[C@@H](CCCNC(=N)N)C(=O)N[C@@H](CC1CCCCC1)C(=O)N[C@@H](CO)C(=O)N[C@@H](Cc1c[nH]cn1)C(=O)N[C@@H](CCCCN)C(=O)NCC(=O)N1CCC[C@H]1CC(=O)N[C@@H](CCCC)C(=O)N1CCC[C@H]1C(=O)N[C@@H](Cc1ccc(Cl)cc1)C(=O)O

EC50 Rat APJ Receptor [3]: 0.341 nM
EC50 Human APJ Receptor [4]: 0.678 nM
B5: SEQ ID NO: 79 (peptide)
peptide: Ac-[hArg][dR]Q[hArg]PE[NMeL]SHKG[Oic][Phe(4-I)]P[dBip]-OH
SMILES: CC(=O)N[C@@H](CCCCNC(=N)N)C(=O)N[C@H](CCCNC(=N)N)C(=O)N[C@@H](CCC(N)=O)C(=O)N[C@@H](CCCCNC(=N)N)C(=O)N1CCC[C@H]1C(=O)N[C@@H](CCC(=O)O)C(=O)N(C)[C@@H](CC(C)C)C(=O)N[C@@H](CO)C(=O)N[C@@H](Cc1c[nH]cn1)C(=O)N[C@@H](CCCCN)C(=O)NCC(=O)N1[C@H](C(=O)N[C@@H](Cc2ccc(I)cc2)C(=O)N2CCC[C@H]2C(=O)N[C@H](Cc2ccc(-c3ccccc3)cc2)C(=O)O)C[C@@H]2CCCC[C@@H]21

EC50 Rat APJ Receptor [3]: 0.994 nM
EC50 Human APJ Receptor [4]: 1.84 nM
Binder: Ac-[hArg]EQ[hArg]P[dR][NMeL]SHKG[Oic][Phe(4-I)]P[dBip]-OH [SEQ ID NO: 76]
